# Results from the RNAGym collection of RNA variant scans (doi:10.1101/gr.219683.116).
# B1: mRNA-splicing (parent)
# chain: AGUUGCUGCUGGGAGCUCCAGCACAGUGAAAUGGACAGAAGGGCAGAGCAA
# Variants of: B1
# Experiment: exon inclusion enrichment index; higher = more inclusion; WT1 exon 5 minigene, HEK293
row,Variant,exon inclusion enrichment index
1,C6A U7C C9A U10C C24A,2.94
2,C6A U7C C9A U10C G11C G12C,2.59
3,G5A U7G U10C,0.936
4,G5C C6U G8C C9U U10C C19A,0.881
5,G5A C6G U7G C9A A47G G48U,0.000624
6,G5A U7C G8A U10C C16G U17C,1.06
7,G2C U3A G5A U7C G8A U10C,1.93
8,C6A U7A C9A U10A G33U G34A,0.0617
9,G5C C6A U7C G8A U10A A29C A30C,0.217
10,G5U G8U C9U U10A,0.00828
11,G5A C6G U7G C9A G28U,0.000687
12,G5A C6G U7G C9A G28A,0.000725
13,G5C C6G U7C U10C A23G C24A,4.41
14,C44G A45C,0.399
15,G46U,0.0964
16,G5A U7C G8A U10C G34U A35G,0.753
17,U3C G5A C6G U7G C9A,0.00112
18,G5C C6A U7C G8A U10A G43U C44U,0.0172
19,G5C C6U U7G G8C C9U U10C,1.54
20,G5C C6A U7C G8A U10A U27G G28C,0.0314
21,G5C C6A U7C G8A U10A A37U G38U,0.0186

row,Variant,exon inclusion enrichment index
1,G5U G8U C9U U32A G33U,0.0405
2,G5C C6G U7C U10C A30U A31G,3.75
3,C6A U7A C9A U10A A14U G15U,0.295
4,G5A U7C G8A U10C A47U G48C,1.6
5,G5A U7C G8A U10C A47U G48U,1.85
6,G5A C6G U7G C9A C24U A25G,0.00148
7,G5A C6G U7G C9A G41U G42A,0.000614
8,G5U G8U C9U U32G G33U,0.0291
9,G5C C6U G8C C9U U10C C16U,2.36
10,G5A C6U U7A G8U C9A A31G,0.12
11,G5C C6G U7C U10C G26A,4.41
12,C6A U7C C9A U10C A39G A40C,3.81
13,G2C U3G G5C C6G U7C U10C,2.57
14,G2U G5C C6G U7C U10C,4.96
15,G41C G42C,0.703
16,G5A C6G U7G C9A C24G,0.00883
17,A30U A31U,0.087
18,G5C C6A U7C G8A U10A A31C U32G,0.221
19,G5A C6U U7A G8U C9A A39U A40G,0.0054
20,G5U U7G G8C C9U,1.58
21,G5C C6A U7C G8A C9U U10C,2.03

row,Variant,exon inclusion enrichment index
1,G5C C6A U7C G8A U10A G15C,0.0588
2,C6A U7C C9A U10C G28U,1.34
3,G5U G8U C9U A20C G21U,0.0336
4,G5C C6U G8C C9U U10C U17C C18A,1.45
5,G5C C6G U7C G11U,2.67
6,G5A C6U U7A G8U C9A U27A,0.0803
7,G5A C6U U7A G8U C9A G41C,0.435
8,C6A U7A C9A U10A A29U A30C,0.665
9,G5C C6G U7C U10C G34C A35C,0.321
10,G5A C6U U7A G8U C9A G12U,0.0278
11,G5C C6U G8C C9U U10C C19U A20C,0.957
12,G5C C6U G8C C9U U10C A35U,0.452
13,G5A C6G U7G C9A U32C G33U,0.00177
14,C6A U7A C9A U10A A35U,0.119
15,G5A U7C G8A U10C G21U C22U,0.857
16,G5C C6U G8C C9U U10C A25C,3.42
17,G5C C6U G8C C9U U10C A25G,3.66
18,G2U C6A U7A C9A U10A,1.36
19,A47U,0.105
20,G5A C6A U7C G8A U10C,1.79
21,G5C C6U G8C C9U U10C G38C,1.28

row,Variant,exon inclusion enrichment index
1,G5C C6G U7C U10C G21U C22G,3.57
2,C6A U7A C9A U10A A30G,0.658
3,C6A U7A C9A U10A A30C,0.809
4,G21C,2.64
5,G5A U7A G8U C9A,0.262
6,G5A C6G U7G C9A U10A G11C,0.0223
7,G5C C6U G8C C9U U10C G12U G13U,0.0261
8,G5C C6U G8C C9U U10C G15A C16G,1.28
9,G5U G8U C9U A39C,0.0249
10,G5C C6G U7C U10C G38U A39C,3.03
11,G2A U3A G5A C6G U7G C9A,0.00701
12,G5A C6G U7G C9A A35C C36U,0.000826
13,G5A C9A,0.851
14,G5A C6U U7A G8U C9A A35G,0.017
15,G5C C6U U7A G8U C9A,0.195
16,U3A U4C G5A U7C G8A U10C,2.99
17,G5A C6G U7G G8A C9A,0.00786
18,G5A C6G U7G C9G U10G,0.0568
19,U3C U4G C6A U7A C9A U10A,0.667
20,G5A C6G U7G C9A A14C G15C,0.000633
